Target: the molecule itself
Test: single-molecule photobleaching step analysis

B1: EmrE, a multidrug transporter from Escherichia coli, with a tetracysteine tag (TC-Tag) (natural protein)
chain: MNPYIYLGGAILAEVIGTTLMKFSEGFTRLWPSVGTIICYCASFWLLAQTLAYIPTGIAYAIWSGVGIVLISLLSWGFFGQRLDLPAIIGMMLICAGVLIINLLSRSTPH
modifications: FlAsH dye covalently bound to the tetracysteine tag
With B1 the “stoichiometry N” value was 2.

Reference: PMC12846830 (Proceedings of the National Academy of Sciences of the …, 2026)
